Earlier results on one substance are cited in paper PMC2363349.

The Kd is the equilibrium constant for the complex coming apart.

In this data set the target is TGF-βRII (Homo sapiens) (UniProt P37173).
Sequence of TGF-βRII (Homo sapiens) (P37173 23-166): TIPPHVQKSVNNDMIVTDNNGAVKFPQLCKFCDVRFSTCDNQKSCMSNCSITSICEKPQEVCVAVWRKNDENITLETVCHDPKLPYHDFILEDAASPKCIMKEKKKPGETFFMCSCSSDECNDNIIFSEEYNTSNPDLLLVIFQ

Sequence of TGF-β1 (P01137 279-390): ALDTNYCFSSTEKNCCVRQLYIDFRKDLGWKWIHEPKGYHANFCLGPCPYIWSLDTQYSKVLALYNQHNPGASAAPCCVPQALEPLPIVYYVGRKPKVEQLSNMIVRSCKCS

TGF-β1 (from UniProt P01137): the equilibrium dissociation constant (Kd) was 0.5 nM.
